The results in this text go back to article PMC3077247 (EMBO Reports, 2011).

One assay deals with ubiquitin (monomeric) (UniProt P0CG48 1-76). Briefly: fluorescence polarisation.
Assay [1] has as its target T1, GST-fusion of the HECT domain of Nedd4, wild type (UniProt P46934-4).
T1 sequence: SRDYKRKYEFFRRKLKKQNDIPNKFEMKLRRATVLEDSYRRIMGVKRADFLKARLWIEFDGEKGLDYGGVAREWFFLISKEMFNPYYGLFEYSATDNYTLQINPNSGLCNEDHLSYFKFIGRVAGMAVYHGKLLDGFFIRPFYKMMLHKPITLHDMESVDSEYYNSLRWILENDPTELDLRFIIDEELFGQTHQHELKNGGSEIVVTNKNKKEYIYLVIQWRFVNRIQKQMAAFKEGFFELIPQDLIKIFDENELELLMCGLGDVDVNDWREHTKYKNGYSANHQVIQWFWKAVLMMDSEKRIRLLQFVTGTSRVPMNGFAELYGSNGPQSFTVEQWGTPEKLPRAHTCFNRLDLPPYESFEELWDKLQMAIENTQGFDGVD
Briefly: pull-down.

For assay [2], the target named is T2, HECT domain of Nedd4, F707A (as used for fluorescence polarisation and SPR) (UniProt P46934-4, F707A).
T2 sequence: T1 sequence with F189A
The assay is described as follows: SPR.

The target of assay [3] is T3, HECT domain of Nedd4, Y605A (as used for SPR) (UniProt P46934-4, Y605A).
T3 sequence: T1 sequence with Y87A
The assay is described as follows: SPR.

Changes are numbered by the printed parent chain.

B1: HECT domain of Nedd4, wild type (as used for crystals, fluorescence polarisation, SPR and supplementary Fig S1) (domain or fragment)
chain: T1 sequence
Turning to B1, in the assay with ubiquitin (monomeric), the affinity, expressed as Kd, was 11 µM.

B2: E2 enzyme Ube2D3 (apo form) (enzyme)
chain: not shown
For B2, the binding result in assay [1], in assay [2] and in assay [3] was “binds” each time.
